Reference: patent US20170088605A1 (Novartis, published 2017)
Positions count from the first letter of the chain named. Where two headings read alike, the source gives them in different places.

T1: BKV serotype I VLP (BK virus serotype I, UniProt P03088 1-362)
T1 chain: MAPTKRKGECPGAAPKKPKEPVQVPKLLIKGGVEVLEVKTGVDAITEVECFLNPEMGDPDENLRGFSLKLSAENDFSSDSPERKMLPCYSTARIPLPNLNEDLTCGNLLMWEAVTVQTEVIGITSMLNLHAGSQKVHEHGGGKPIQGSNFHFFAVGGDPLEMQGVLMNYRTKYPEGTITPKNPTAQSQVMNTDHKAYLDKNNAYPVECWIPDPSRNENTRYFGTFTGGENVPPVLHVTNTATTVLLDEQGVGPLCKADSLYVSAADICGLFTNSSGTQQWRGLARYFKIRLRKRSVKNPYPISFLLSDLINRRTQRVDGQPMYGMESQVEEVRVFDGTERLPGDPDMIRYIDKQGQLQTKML

T2: BKV serotype I infectious virus (VP1) (BK virus serotype I, UniProt P03088 1-362)
T2 sequence (looked up): T1 chain with D158E, T171S, E175D, I210V, T219A

B1: 2081-36-8 (antibody, V domains shown)
VH: QVQLQQSGAGLVRPGSSVKISCKTSGYAFSSYWMNWVKQRPGQGLEWIGQIYPGNGDTNYNGKFKGKATLTADKSSNTAYIQLNSLTSEDSAVYFCAREARQGYHYAMDYWGQGTSVTVSL
VL: EIVFTQSPTTMAAFPGEKITITCSASSMINSNYLHWYQQKPGFSPKVLIYRTSNLASGVPARFSGTGSGTSFSLTIGTMEAEDVATYYCQQGSNIFTFGSGTKLEIK
B2: EBB-C1975-A7 (antibody, V domains shown)
VH: QVQLVESGGGLVQPGGSLRLSCAASGFTVSRNYMSWVRQAPGKGLEWVSGIYSGGSTYYADSVKGRFTISRDYSKNTLSLQMNTLRVEDTAVYFCAREDEFWSGYSAGVDWGQGTLVTVSS
VL: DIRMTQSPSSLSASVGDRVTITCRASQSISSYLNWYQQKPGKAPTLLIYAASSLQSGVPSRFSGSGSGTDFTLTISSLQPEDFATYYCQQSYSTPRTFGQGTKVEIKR

Assays:
BKV serotype I VLP = target: T1, BKV serotype I VLP
[1] = target: T2, BKV serotype I infectious virus (VP1); test: cell-based or functional assay
[2] = target: T3, BKV serotype I VP1 pentamer (BK virus serotype I, UniProt P03088 30-297); test: SPR, antibody captured on Protein A
T3 construct: also called serotype I pentamers; BKV-VP1 serotype I pentameric protein

[3] = target: BKV serotype III chimeric infectious virus (VP1 of isolate AS) (BK virus serotype III); test: cell-based or functional assay
[4] = target: BKV serotype II chimeric infectious virus (VP1 of isolate SB) (BK virus serotype II); test: cell-based or functional assay
[5] = target: BKV serotype IV chimeric infectious virus (VP1 of strain ITA-4) (BK virus serotype IV); test: cell-based or functional assay
[6] = target: T2, BKV serotype I infectious virus (VP1); test: cell-based or functional assay; remark: listed apart in the source

| Binder | EC50 (read off the curve) (BKV serotype I VLP) | neutralization EC50 [1] | neutralization EC90 [1] | binding result [2] | neutralization EC50 [3] | neutralization EC90 [3] | neutralization EC50 [4] | neutralization EC90 [4] | neutralization EC50 [5] | neutralization EC90 [5] | neutralization EC50 [6] | neutralization EC90 [6] |
| --- | --- | --- | --- | --- | --- | --- | --- | --- | --- | --- | --- | --- |
| B1 | ~0.3 nM | 0.147 µg/mL | 0.909 µg/mL | – | – | – | – | – | – | – | – | – |
| B2 | – | – | – | no binding | > 100 µg/mL | > 100 µg/mL | 0.11 µg/mL | 14.2 µg/mL | 0.28 µg/mL | 7.79 µg/mL | 0.024 µg/mL | 5.15 µg/mL |
